Values quoted from earlier work in patent publication US20080031874A1, “Treatment of endotoxemia using endotoxin neutralizing agents” (priority 2006, published 2008).

B1: LBP: glycoprotein present in serum that recognizes the lipid A region of LPS (protein, UniProt P18428 26-481, looked up)
Lipopolysaccharide-binding …: ANPGLVARITDKGLQYAAQEGLLALQSELLRITLPDFTGDLRIPHVGRGRYEFHSLNIHSCELLHSALRPVPGQGLSLSISDSSIRVQGRWKVRKSFFKLQGSFDVSVKGISISVNLLLGSESSGRPTVTASSCSSDIADVEVDMSGDLGWLLNLFHNQIESKFQKVLESRICEMIQKSVSSDLQPYLQTLPVTTEIDSFADIDYSLVEAPRATAQMLEVMFKGEIFHRNHRSPVTLLAAVMSLPEEHNKMVYFAISDYVFNTASLVYHEEGYLNFSITDDMIPPDSNIRLTTKSFRPFVPRLARLYPNMNLELQGSVPSAPLLNFSPGNLSVDPYMEIDAFVLLPSSSKEPVFRLSVATNVSATLTFNTSKITGFLKPGKVKVELKESKVGLFNAELLEALLNYYILNTFYPKFNDKLAEGFPLPLLKRVQLYDLGLQIHKDFLFLGANVQYMRV
With B1 as the molecule, how does the “complexes with rough and smooth form LPS” value read?
Its value is “high affinity, 1:1 stoichiometric complexes”.

And the “direct cytotoxicity for gram-negative bacteria” value (gram-negative bacteria)?
The value was “not directly cytotoxic”.
